From patent US20210230294A1 (Incyte, published 2021)

Columns and labels:
[1] = biological target: T1, cynomolgus CD73 (SEQ ID NO:72) (cynomolgus, UniProt P21589 27-549 (human entry)); assay: SPR (Biacore 8K), antibody captured on anti-human Fc, CD73 as analyte, open conformation
T1 construct: Open conformation (normal SPR running buffer)
T1 chain: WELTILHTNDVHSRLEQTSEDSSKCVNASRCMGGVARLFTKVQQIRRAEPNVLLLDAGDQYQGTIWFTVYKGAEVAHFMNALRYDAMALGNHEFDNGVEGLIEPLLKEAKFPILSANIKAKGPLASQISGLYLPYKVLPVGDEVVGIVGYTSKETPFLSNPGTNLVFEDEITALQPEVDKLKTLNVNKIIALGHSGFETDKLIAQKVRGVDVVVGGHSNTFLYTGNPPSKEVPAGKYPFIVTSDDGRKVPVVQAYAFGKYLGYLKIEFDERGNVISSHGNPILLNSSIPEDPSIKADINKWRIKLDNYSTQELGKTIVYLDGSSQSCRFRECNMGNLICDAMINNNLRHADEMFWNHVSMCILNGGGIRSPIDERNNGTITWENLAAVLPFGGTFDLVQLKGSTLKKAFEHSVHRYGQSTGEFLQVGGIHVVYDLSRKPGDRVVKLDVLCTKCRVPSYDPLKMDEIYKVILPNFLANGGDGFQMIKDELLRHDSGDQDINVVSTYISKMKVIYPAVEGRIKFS
Procedure: (§1) The SPR running buffer (10 mM HEPES, 150 mM NaCl, 3 mM EDTA and 0.05% v/v Surfactant P20, pH 7.4) was prepared from 10×HBS-EP Buffer (GE Healthcare). Anti-human Fc antibodies (GE Healthcare) were immobilized via amine coupling on all sixteen flow cells of an S series sensor chip CM5 (GE Healthcare). The immobilization levels were ˜9000 RU for all flow cells. […] The non-cleavable ADP analogue APCP (adenosine-5′-(α,β-methylene) diphosphate) with the presence of Zn²⁺ can be used to shift the CD73 conformational equilibrium from open towards closed. Therefore, recombinant CD73 was incubated with SPR running buffer in the presence of 100 μM APCP and 10 μM ZnCl₂ (closed SPR running buffer) to study the binding of anti-CD73 antibody to the CD73 in the closed conformation. To achieve this, the ABA injection feature in Biacore 8K was used. For open conformation, the ABA injection sequence started with 60 seconds injection of running buffer. Then, CD73 3-fold serial dilution concentration series prepared from CD73 stock (BPS Bioscience) and running buffer were injected for 180 seconds immediately followed by running buffer for 240 seconds. For closed conformation, the normal SPR running buffer was replaced by closed SPR running buffer. Surface was regenerated with 30 seconds injection of 3 M MgCl₂.

[2] = biological target: T2, mouse CD73 (SEQ ID NO:71) (mouse, UniProt Q61503 29-551); assay: as above
T2 construct: Open conformation (normal SPR running buffer); also called Murine; murine CD73
T2 sequence: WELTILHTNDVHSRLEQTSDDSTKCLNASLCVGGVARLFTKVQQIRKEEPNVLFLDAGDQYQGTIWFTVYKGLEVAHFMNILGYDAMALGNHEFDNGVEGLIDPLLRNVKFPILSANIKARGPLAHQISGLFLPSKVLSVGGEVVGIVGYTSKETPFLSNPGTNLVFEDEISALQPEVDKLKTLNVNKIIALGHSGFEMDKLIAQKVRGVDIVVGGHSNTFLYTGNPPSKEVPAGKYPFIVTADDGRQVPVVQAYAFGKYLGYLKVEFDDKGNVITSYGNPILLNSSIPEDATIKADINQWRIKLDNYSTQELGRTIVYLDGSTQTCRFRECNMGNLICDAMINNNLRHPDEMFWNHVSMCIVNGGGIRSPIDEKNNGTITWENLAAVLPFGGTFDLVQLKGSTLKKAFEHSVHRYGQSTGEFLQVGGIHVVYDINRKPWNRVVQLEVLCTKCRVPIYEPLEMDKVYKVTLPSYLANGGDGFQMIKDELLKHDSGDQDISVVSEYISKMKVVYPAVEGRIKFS
Procedure: as §1

[3] = biological target: T3, recombinant human CD73 (SEQ ID NO:70) (human, UniProt P21589 27-549); assay: as above
T3 construct: Soluble recombinant protein in normal SPR running buffer (open conformation), the soluble enzyme assay and HDX-MS; SPR stock bought from BPS Bioscience; also called rhuCD73; CD73 in the open conformation
T3 sequence: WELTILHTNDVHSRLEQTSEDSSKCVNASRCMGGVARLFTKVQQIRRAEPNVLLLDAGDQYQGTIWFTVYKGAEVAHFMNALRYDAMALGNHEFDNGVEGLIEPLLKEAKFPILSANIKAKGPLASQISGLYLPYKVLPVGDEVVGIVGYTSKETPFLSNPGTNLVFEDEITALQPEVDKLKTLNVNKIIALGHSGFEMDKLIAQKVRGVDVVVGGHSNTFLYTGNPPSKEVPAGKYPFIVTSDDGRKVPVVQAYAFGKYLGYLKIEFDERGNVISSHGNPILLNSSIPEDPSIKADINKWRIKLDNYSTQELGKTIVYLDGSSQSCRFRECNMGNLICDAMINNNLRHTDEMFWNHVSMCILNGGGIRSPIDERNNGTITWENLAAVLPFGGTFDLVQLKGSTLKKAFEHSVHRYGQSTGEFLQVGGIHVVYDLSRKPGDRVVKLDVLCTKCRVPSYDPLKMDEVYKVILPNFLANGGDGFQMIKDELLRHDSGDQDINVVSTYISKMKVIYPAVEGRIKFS
Procedure: as §1

[4] = biological target: T4, mouse CD73 in the closed conformation (mouse, UniProt Q61503 29-551); assay: SPR (Biacore 8K), antibody captured on anti-human Fc, CD73 as analyte, buffer with APCP and ZnCl2 (closed conformation)
T4 construct: Same protein as m3 in buffer with 100 uM APCP and 10 uM ZnCl2 (closed conformation); also called Murine, Closed
T4 sequence: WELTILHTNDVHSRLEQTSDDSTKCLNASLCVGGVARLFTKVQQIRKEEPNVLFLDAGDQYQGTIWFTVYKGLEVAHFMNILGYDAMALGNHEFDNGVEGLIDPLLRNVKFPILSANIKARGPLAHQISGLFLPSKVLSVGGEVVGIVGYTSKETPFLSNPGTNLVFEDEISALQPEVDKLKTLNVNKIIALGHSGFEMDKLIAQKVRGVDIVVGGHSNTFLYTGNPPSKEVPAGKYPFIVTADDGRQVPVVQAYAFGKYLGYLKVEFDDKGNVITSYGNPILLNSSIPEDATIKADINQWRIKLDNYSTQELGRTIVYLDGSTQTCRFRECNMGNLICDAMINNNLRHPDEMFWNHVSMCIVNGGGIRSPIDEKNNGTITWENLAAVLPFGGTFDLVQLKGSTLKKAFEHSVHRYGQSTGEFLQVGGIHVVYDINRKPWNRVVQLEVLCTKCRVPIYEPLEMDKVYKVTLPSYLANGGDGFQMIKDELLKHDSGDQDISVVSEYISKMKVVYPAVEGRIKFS
Procedure: as §1

[5] = biological target: T5, cynomolgus CD73 in the closed conformation (cynomolgus, UniProt P21589 27-549 (human entry)); assay: as above
T5 construct: Same protein as m2 in buffer with 100 uM APCP and 10 uM ZnCl2 (closed conformation); also called Cynomolgus, Closed
T5 chain: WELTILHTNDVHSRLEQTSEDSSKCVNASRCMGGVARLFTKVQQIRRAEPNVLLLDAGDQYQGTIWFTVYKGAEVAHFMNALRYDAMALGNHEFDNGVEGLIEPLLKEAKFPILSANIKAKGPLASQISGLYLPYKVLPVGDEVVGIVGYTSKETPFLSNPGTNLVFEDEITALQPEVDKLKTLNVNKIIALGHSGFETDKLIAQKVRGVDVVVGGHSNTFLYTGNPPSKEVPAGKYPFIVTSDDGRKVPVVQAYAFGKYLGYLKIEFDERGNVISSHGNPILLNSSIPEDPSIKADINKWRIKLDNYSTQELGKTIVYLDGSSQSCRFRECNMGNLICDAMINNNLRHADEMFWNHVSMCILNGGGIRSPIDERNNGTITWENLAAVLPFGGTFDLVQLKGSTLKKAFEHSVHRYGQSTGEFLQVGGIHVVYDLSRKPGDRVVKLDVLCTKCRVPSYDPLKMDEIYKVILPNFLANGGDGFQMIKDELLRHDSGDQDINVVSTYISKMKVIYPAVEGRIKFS
Procedure: as §1

[6] = biological target: T6, recombinant human CD73 in the closed conformation (human, UniProt P21589 27-549); assay: as above
T6 construct: Kept apart from m1 because results differ between the two states; also called human CD73, Closed
T6 sequence: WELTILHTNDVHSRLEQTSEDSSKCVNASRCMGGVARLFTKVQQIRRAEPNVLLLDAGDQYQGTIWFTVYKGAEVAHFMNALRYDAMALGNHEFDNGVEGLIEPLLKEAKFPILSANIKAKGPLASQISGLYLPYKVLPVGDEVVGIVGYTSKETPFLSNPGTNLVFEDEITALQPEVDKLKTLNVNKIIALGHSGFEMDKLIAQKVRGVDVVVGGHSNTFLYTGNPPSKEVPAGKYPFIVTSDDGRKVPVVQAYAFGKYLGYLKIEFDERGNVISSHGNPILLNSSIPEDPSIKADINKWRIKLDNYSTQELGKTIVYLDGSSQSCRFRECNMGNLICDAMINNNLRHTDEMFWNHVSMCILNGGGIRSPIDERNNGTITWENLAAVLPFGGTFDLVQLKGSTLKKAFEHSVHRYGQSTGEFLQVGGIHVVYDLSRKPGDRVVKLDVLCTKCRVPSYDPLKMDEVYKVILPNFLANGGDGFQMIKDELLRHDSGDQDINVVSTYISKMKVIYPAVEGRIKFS
Procedure: as §1

B1: CL25 (chimeric antibody, murine VH/VL with human IgG1/kappa constant regions) (antibody, V domains shown)
VH: QVQLQQSGAELARPGASVKLSCRASGYTFTSYGLSWVKQRTGQGLEWIGEIYPGSGNTYYNEKFKGKATLTADKSSSTAYMELRSLTSEDSAVYFCARYDYLGSSYGFDYWGQGTTLTVSS
VL: DIVMTQSHKFMSTSVGDRVSITCKASQDVSTAVAWYQQKPGQSPKLLIYSASYRYNGVPDRFTGSGSGTDFTFTISSVQAEDLAVYYCQQHYNTPYTFGGGTKLEIKR
notes: also called Chimeric antibody CL25
B1 gave a Kd [1] of under 0.658 nM, a koff [1] of 0.000658 s⁻¹ and a kon [1] of over 1e+06 M⁻¹ s⁻¹. The binding result [2] was “no binding”, the Kd [3] was under 0.394 nM and the koff [3] was 0.000394 s⁻¹. The kon [3] was over 1e+06 M⁻¹ s⁻¹, the binding result [4] was “no binding” and the Kd [5] was 0.529 nM. The koff [5] was 0.000495 s⁻¹, the kon [5] was 936000 M⁻¹ s⁻¹ and the Kd [6] was 0.381 nM. It also gave a koff [6] of 0.000344 s⁻¹ and a kon [6] of 903000 M⁻¹ s⁻¹.
